# Paper PMC9122598, “NASP maintains histone H3–H4 homeostasis through two distinct H3 binding modes” (Nucleic Acids Research, 2022)
# B1: frog NASP.S: frog homologue of sNASP (N1/N2); tested as GST-NASP.Sc dimer/monomer mixture (protein)
# chain: SAEKADGIDIDTEAKRLMGAGQKHLVMKDVRSAVNLFQEASSLLAKQYGETADECAEAFYSYGMSLLELARLENEGTEEKETEEEDVGNLQLAWEMLDLCKTIFKRQQSKEAQLKAAQAHQKLGEVCIESENYSQAVEDFLACLNIQKEHLEEHDRLLAETHYHLGLAYQYSSKHEEAISHFTQSIGVIEKRMDVLTKQLEASVGELVDEVKKEMDELKDLLPDIKEKIEDSKEAQKNATVTEKALKETLVGGSS
# modifications: left off: GST, N-terminal, cleaved
# notes: frog homologue of sNASP (N1/N2); tested as GST-NASP.Sc dimer/monomer mixture
# System: H3–H4 tetramer
# Test: GST pulldown of H3–H4 with frog GST-NASP.Sc
# Format: binding
# Experimental: As mentioned above the GST-tagged sNASPc, frog NASP.Sc and their mutants could not be separated into dimer and monomer peaks during the purification steps, the conformations of these proteins used for pulldowns were mixtures of dimer and monomer. […] All the samples were analyzed with SDS-PAGE.
molecule,measurement,setting,value
B1,Retention of H3 vs H4 in pulldown,in the absence of H3 αN-binding,retained more H3 than H4
same,Pulldown binding to H3–H4,"incubation 0.3 M NaCl, wash […] NaCl",H3 αN- and α3-binding sites are conserved
